According to patent publication US20220362357A1, “Synergistic Combinations of Amino Acid Depletion Agent Sensitizers (AADAS) and Amino Acid Depletion Agents (AADA), and Therapeutic Methods of Use Thereof” (STICHTING RADBOUD UNIVERSITAIR MEDISCH CENTRUM, priority 2018, published 2022):

What was measured:
Type in all cases: cell-based, human
[1] = test system: PDX m764; test: PDX ALL cells co-cultured on hTERT MSCs, ASNase x ibrutinib dilution matrix, microscopy; conditions: m764 (3 d), ibrutinib B0=0 to B9=100
Description: (§1) After 2-4 months these mice developed full blown leukemia with an immunophenotype and genetic composition that in the large majority of cases is identical to the original material at the time of injection.
(§2) Briefly, hTERT immortalized MSCs were seeded in either a 384 wells format (microscopy) or a 96 wells format (7AAD staining) and allowed to settle for 24 hours prior to the addition of ALL xenografts. […] After 3 and 7 days of incubation, cell death was analyzed using microscopy using live cells staining or flowcytometry using 7AAD to discriminate between live or dead cells.

[2] = test system: PDX m1095; test: as above; conditions: m1095 (3 d), ibrutinib B0=0 to B9=100
Description: as §1, §2

[3] = test system: PDX m838; test: as above; conditions: m838 (3 d), ibrutinib B0=0 to B9=100
Description: as §1, §2

[4] = test system: PDX m3810; test: as above; conditions: ibrutinib B0=0 to B9=100
Description: as §1, §2

[5] = test system: PDX m1717; test: as above; conditions: m1717 (3 d), ibrutinib B0=0 to B9=100
Description: as §1, §2

[6] = test system: PDX m4206; test: as above; conditions: ibrutinib B0=0 to B9=100
Description: as §1, §2

[7] = test system: PDX m1600; test: as above; conditions: m1600 (3 d), ibrutinib B0=0 to B9=100
Description: as §1, §2

[8] = test system: PDX m4136; test: as above; conditions: m4136 (3 d), ibrutinib B0=0 to B9=100
Description: as §1, §2

[9] = test system: PDX m1338; test: as above; conditions: m1338 (7 d), ibrutinib B0=0 to B9=100
Description: as §1, §2

[10] = test system: PDX m3657; test: as above; conditions: m3657 (7 d), ibrutinib B0=0 to B9=100
Description: as §1, §2

[11] = test system: Nalm6, Sem and Reh cells; test: ASNase and ibrutinib 7 day treatment of ALL cell lines: SubG1, PARP cleavage, amine staining, colony assay; conditions: 7 days; 1 IU/ml ASNase, ibrutinib 1 or 10 μM; FIGS. 4D, 4E, 4F & 4H
Description: BTK inhibition. […] Cell viability was then measured by cell cycle distribution, (FIGS. 4C & 4D), and by blotting for the apoptosis marker PARP and calculating the ratio between cleaved and uncleaved PARP protein or (FIG. 4E) by amine staining (FIG. 4F).

B1: ASNase: native E. coli ASNase (NCBI WP_000394140.1), used in the in vitro studies (protein, UniProt P00805 23-348, looked up)
L-asparaginase 2: LPNITILATGGTIAGGGDSATKSNYTVGKVGVENLVNAVPQLKDIANVKGEQVVNIGSQDMNDNVWLTLAKKINTDCDKTDGFVITHGTDTMEETAYFLDLTVKCDKPVVMVGAMRPSTSMSADGPFNLYNAVVTAADKASANRGVLVVMNDTVLDGRDVTKTNTTDVATFKSVNYGPLGYIHNGKIDYQRTPARKHTSDTPFDVSKLNELPKVGIVYNYANASDLPAKALVDAGYDGIVSAGVGNGNLYKSVFDTLATAAKTGTAVVRSSRVPTGATTQDAEVDDAKYGFVASGTLNPQKARVLLQLALTQTKDPQQIQQIFNQY
live cells by automated microscopy (table names no quantity) ([1]; ASNase A1=0.01): 546
live cells by automated microscopy (table names no quantity) ([1]; ASNase A2=0.03): 1126
live cells by automated microscopy (table names no quantity) ([1]; ASNase A3=0.1): 109
live cells by automated microscopy (table names no quantity) ([1]; ASNase A4=0.3): 250
live cells by automated microscopy (table names no quantity) ([1]; ASNase A5=1): 915
live cells by automated microscopy (table names no quantity) ([1]; ASNase A6=3): 887
live cells by automated microscopy (table names no quantity) ([1]; ASNase A7=10): 594
live cells by automated microscopy (table names no quantity) ([1]; ASNase A8=32): 157
live cells by automated microscopy (table names no quantity) ([1]; ASNase A9 (A=100)): 2
live cells by automated microscopy (table names no quantity) ([2]; ASNase A1=0.01): 2935
live cells by automated microscopy (table names no quantity) ([2]; ASNase A2=0.03): 2914
live cells by automated microscopy (table names no quantity) ([2]; ASNase A3=0.1): 3089
live cells by automated microscopy (table names no quantity) ([2]; ASNase A4=0.3): 3205
live cells by automated microscopy (table names no quantity) ([2]; ASNase A5=1): 2579
live cells by automated microscopy (table names no quantity) ([2]; ASNase A6=3): 549
live cells by automated microscopy (table names no quantity) ([2]; ASNase A7=10): 2033
live cells by automated microscopy (table names no quantity) ([2]; ASNase A8=32): 238
live cells by automated microscopy (table names no quantity) ([2]; ASNase A9 (A=100)): 30
live cells by automated microscopy (table names no quantity) ([3]; ASNase A1=0.01): 2793
live cells by automated microscopy (table names no quantity) ([3]; ASNase A2=0.03): 3003
live cells by automated microscopy (table names no quantity) ([3]; ASNase A3=0.1): 3109
live cells by automated microscopy (table names no quantity) ([3]; ASNase A4=0.3): 2839
live cells by automated microscopy (table names no quantity) ([3]; ASNase A5=1): 2454
live cells by automated microscopy (table names no quantity) ([3]; ASNase A6=3): 3049
live cells by automated microscopy (table names no quantity) ([3]; ASNase A7=10): 2431
live cells by automated microscopy (table names no quantity) ([3]; ASNase A8=32): 175
live cells by automated microscopy (table names no quantity) ([3]; ASNase A9 (A=100)): 18
live cells by automated microscopy (table names no quantity) ([4]; m3810 (3 d), ASNase A1=0.01): 1232
live cells by automated microscopy (table names no quantity) ([4]; m3810 (3 d), ASNase A2=0.03): 2209
live cells by automated microscopy (table names no quantity) ([4]; m3810 (3 d), ASNase A3=0.1): 1405
live cells by automated microscopy (table names no quantity) ([4]; m3810 (3 d), ASNase A4=0.3): 1982
live cells by automated microscopy (table names no quantity) ([4]; m3810 (3 d), ASNase A5=1): 1472
live cells by automated microscopy (table names no quantity) ([4]; m3810 (3 d), ASNase A6=3): 1497
live cells by automated microscopy (table names no quantity) ([4]; m3810 (3 d), ASNase A7=10): 1054
live cells by automated microscopy (table names no quantity) ([4]; m3810 (3 d), ASNase A8=32): 268
live cells by automated microscopy (table names no quantity) ([4]; m3810 (3 d), ASNase A9 (A=100)): 8
live cells by automated microscopy (table names no quantity) ([4]; m3810 (7 d), ASNase A1=0.01): 1776
live cells by automated microscopy (table names no quantity) ([4]; m3810 (7 d), ASNase A2=0.03): 1752
live cells by automated microscopy (table names no quantity) ([4]; m3810 (7 d), ASNase A3=0.1): 1563
live cells by automated microscopy (table names no quantity) ([4]; m3810 (7 d), ASNase A4=0.3): 1519
live cells by automated microscopy (table names no quantity) ([4]; m3810 (7 d), ASNase A5=1): 1136
live cells by automated microscopy (table names no quantity) ([4]; m3810 (7 d), ASNase A6=3): 1251
live cells by automated microscopy (table names no quantity) ([4]; m3810 (7 d), ASNase A7=10): 686
live cells by automated microscopy (table names no quantity) ([4]; m3810 (7 d), ASNase A8=32): 87
live cells by automated microscopy (table names no quantity) ([4]; m3810 (7 d), ASNase A9 (A=100)): 4
live cells by automated microscopy (table names no quantity) ([5]; ASNase A1=0.01): 5977
live cells by automated microscopy (table names no quantity) ([5]; ASNase A2=0.03): 6674
live cells by automated microscopy (table names no quantity) ([5]; ASNase A3=0.1): 5155
live cells by automated microscopy (table names no quantity) ([5]; ASNase A4=0.3): 6700
live cells by automated microscopy (table names no quantity) ([5]; ASNase A5=1): 6589
live cells by automated microscopy (table names no quantity) ([5]; ASNase A6=3): 5782
live cells by automated microscopy (table names no quantity) ([5]; ASNase A7=10): 3762
live cells by automated microscopy (table names no quantity) ([5]; ASNase A8=32): 571
live cells by automated microscopy (table names no quantity) ([5]; ASNase A9 (A=100)): 24
live cells by automated microscopy (table names no quantity) ([6]; m4206 (3 d), ASNase A1=0.01): 3112
live cells by automated microscopy (table names no quantity) ([6]; m4206 (3 d), ASNase A2=0.03): 2484
live cells by automated microscopy (table names no quantity) ([6]; m4206 (3 d), ASNase A3=0.1): 3106
live cells by automated microscopy (table names no quantity) ([6]; m4206 (3 d), ASNase A4=0.3): 2323
live cells by automated microscopy (table names no quantity) ([6]; m4206 (3 d), ASNase A5=1): 2141
live cells by automated microscopy (table names no quantity) ([6]; m4206 (3 d), ASNase A6=3): 2304
live cells by automated microscopy (table names no quantity) ([6]; m4206 (3 d), ASNase A7=10): 1979
live cells by automated microscopy (table names no quantity) ([6]; m4206 (3 d), ASNase A8=32): 301
live cells by automated microscopy (table names no quantity) ([6]; m4206 (3 d), ASNase A9 (A=100)): 69
live cells by automated microscopy (table names no quantity) ([6]; m4206 (7 d), ASNase A1=0.01): 56
live cells by automated microscopy (table names no quantity) ([6]; m4206 (7 d), ASNase A2=0.03): 52
live cells by automated microscopy (table names no quantity) ([6]; m4206 (7 d), ASNase A3=0.1): 86
live cells by automated microscopy (table names no quantity) ([6]; m4206 (7 d), ASNase A4=0.3): 37
live cells by automated microscopy (table names no quantity) ([6]; m4206 (7 d), ASNase A5=1): 83
live cells by automated microscopy (table names no quantity) ([6]; m4206 (7 d), ASNase A6=3): 87
live cells by automated microscopy (table names no quantity) ([6]; m4206 (7 d), ASNase A7=10): 68
live cells by automated microscopy (table names no quantity) ([6]; m4206 (7 d), ASNase A8=32): 24
live cells by automated microscopy (table names no quantity) ([6]; m4206 (7 d), ASNase A9 (A=100)): 35
live cells by automated microscopy (table names no quantity) ([7]; ASNase A1=0.01): 4146
live cells by automated microscopy (table names no quantity) ([7]; ASNase A2=0.03): 4603
live cells by automated microscopy (table names no quantity) ([7]; ASNase A3=0.1): 3714
live cells by automated microscopy (table names no quantity) ([7]; ASNase A4=0.3): 3134
live cells by automated microscopy (table names no quantity) ([7]; ASNase A5=1): 4045
live cells by automated microscopy (table names no quantity) ([7]; ASNase A6=3): 4366
live cells by automated microscopy (table names no quantity) ([7]; ASNase A7=10): 3730
live cells by automated microscopy (table names no quantity) ([7]; ASNase A8=32): 487
live cells by automated microscopy (table names no quantity) ([7]; ASNase A9 (A=100)): 4
live cells by automated microscopy (table names no quantity) ([8]; ASNase A1=0.01): 1992
live cells by automated microscopy (table names no quantity) ([8]; ASNase A2=0.03): 1998
live cells by automated microscopy (table names no quantity) ([8]; ASNase A3=0.1): 1980
live cells by automated microscopy (table names no quantity) ([8]; ASNase A4=0.3): 1892
live cells by automated microscopy (table names no quantity) ([8]; ASNase A5=1): 2157
live cells by automated microscopy (table names no quantity) ([8]; ASNase A6=3): 2652
live cells by automated microscopy (table names no quantity) ([8]; ASNase A7=10): 2136
live cells by automated microscopy (table names no quantity) ([8]; ASNase A8=32): 2172
live cells by automated microscopy (table names no quantity) ([8]; ASNase A9 (A=100)): 39
live cells by automated microscopy (table names no quantity) ([9]; ASNase A1=0.01): 2207
live cells by automated microscopy (table names no quantity) ([9]; ASNase A2=0.03): 3174
live cells by automated microscopy (table names no quantity) ([9]; ASNase A3=0.1): 2916
live cells by automated microscopy (table names no quantity) ([9]; ASNase A4=0.3): 2372
live cells by automated microscopy (table names no quantity) ([9]; ASNase A5=1): 2788
live cells by automated microscopy (table names no quantity) ([9]; ASNase A6=3): 2166
live cells by automated microscopy (table names no quantity) ([9]; ASNase A7=10): 1468
live cells by automated microscopy (table names no quantity) ([9]; ASNase A8=32): 292
live cells by automated microscopy (table names no quantity) ([9]; ASNase A9 (A=100)): 1
live cells by automated microscopy (table names no quantity) ([10]; ASNase A1=0.01): 3562
live cells by automated microscopy (table names no quantity) ([10]; ASNase A2=0.03): 4473
live cells by automated microscopy (table names no quantity) ([10]; ASNase A3=0.1): 4173
live cells by automated microscopy (table names no quantity) ([10]; ASNase A4=0.3): 1159
live cells by automated microscopy (table names no quantity) ([10]; ASNase A5=1): 3935
live cells by automated microscopy (table names no quantity) ([10]; ASNase A6=3): 3317
live cells by automated microscopy (table names no quantity) ([10]; ASNase A7=10): 4220
live cells by automated microscopy (table names no quantity) ([10]; ASNase A8=32): 723
live cells by automated microscopy (table names no quantity) ([10]; ASNase A9 (A=100)): 17
apoptotic killing efficacy [11]: relatively small effect
